In PMC6441041:

Key:
[1] = target: SH1 penton protein VP9 (haloarchaeal virus SH1); assay: cryo-EM structure; asymmetric (C1) localised reconstruction of the whole 5-fold vertex of spike-containing virions, overall 7.2 Å
[2] = target: SH1 membrane-associated protein VP12 (haloarchaeal virus SH1); assay: cryo-EM structure; purified SH1 virions with and without spikes, data merged; icosahedral and block-based/localised reconstruction of the capsid, 3.8 Å; 20 mM Tris-HCl pH 7.2, 1 M NaCl, 10 mM MnCl2

| Substance | stoichiometry N [1] | stoichiometry N [2] |
| --- | --- | --- |
| SH1 penton protein VP9 (natural protein) | 5 |  |
| SH1 membrane-associated protein VP12 (natural protein) |  | 5 |
